Source: patent US8828401B2, “Cytotoxic peptides and antibody drug conjugates thereof” (Pfizer Inc., priority 2011, dated 2014)

Columns and labels:
Test in all cases: In vitro cytotoxicity assay with anti-Notch ADCs (MTS)
Type in all cases: cell-based
Settings in all cases: average of 2-4 repeats where ± S.E.M. is given
HCC2429 (lung cancer) = test system: HCC2429 (lung cancer)
Procedure: (§1) The effects of anti-Notch ADCs were assessed on 1) cell lines endogenously expressing Notch protein: HCC2429 (lung cancer), OVCAR3 (ovarian cancer) and MDA-MB-468 (breast cancer), 2) cell lines engineered to over-express Notch protein: MDA-MB-468/hNotch and U2OS/hNotch, and 3) a negative control cell line (SW900) using an MTS cellular viability indicator (Promega, Madison, Wis.). These cell lines were cultured with increasing concentrations of anti-Notch ADCs comprising humanized anti-Notch antibodies, hu28 and hu75, and rat-human chimeric anti-Notch antibodies, ch28 and ch75, conjugated to various linker-payload combinations of the present invention. As a specificity control for the anti-Notch-ADCs, non-targeted control-ADCs (huNeg8.8-ADCs or ch2H6-ADCs) were also tested on the same cell lines. After four days, viability of each culture was assessed. IC50 values were calculated by logistic non-linear regression and presented as ng Ab/mL. The drug antibody ratio (DAR) is also provided.

OVCAR3 (ovarian cancer) = test system: OVCAR3 (ovarian cancer)
Procedure: as §1

MDA-MB-468/hNotch = test system: MDA-MB-468/hNotch
Procedure: as §1

[1] = test system: MDA-MB-468 (breast cancer)
Procedure: as §1

U2OS/hNotch = test system: U2OS/hNotch
Procedure: as §1

B1: ch75-vc6780 (conjugate)
VH: QVKLLQSGAALVKPGASVKMSCKASGYAFTDYWVTWVKQSHGKSLEWIGEISPNSGGTNFNEKFKGKATLTVDKSTSTAYMELSRLTSEDSAIYYCTRGEIRYNWFAYWGQGTLVTVSS
VL: DIQMTQSPSSLSASVGDRVTITCKASQNVGNNIAWYQQKPGKAPKLLIYYASNRYTGVPSRFSGSGYGTDFTLTISSLQPEDFATYYCQRLYNSPFTFGGGTKVEIK
For B1, the “IC50 (ng Ab/mL) ± S.E.M.” value (HCC2429 (lung cancer)) was 1004 ± 177.0 ng Ab/mL, the “IC50 (ng Ab/mL) ± S.E.M.” value (OVCAR3 (ovarian cancer)) was 922 ng Ab/mL and the “IC50 (ng Ab/mL) ± S.E.M.” value (MDA-MB-468/hNotch) was 21 ± 3.5 ng Ab/mL. The “IC50 (ng Ab/mL) ± S.E.M.” value [1] was 6873 ± 4230.0 ng Ab/mL.

B2: ch28-vc0101: rat-human chimeric anti-Notch antibody ch28 conjugated to mcValCitPABC-#54 (conjugate)
VH: EVQLVESGGGLVQPGRSLTLSCVASGFTFRDYGMTWIRQAPGKGLTWVAYISSGSNYIYYAEAVKGRFTISRDNAKNTLYLQMTSLRSEDTALYFCTRRGPFVLDAWGQGASVTVSS
VL: DIQMTQSPSFLSASVGDRVTINCKASQSINRYLHWFQQKLGEAPKLLIYNANGLQTGIPSRFSGSGSGTDFTLTISSLQSEDVATYFCLQHNTWPDTFGAGTKLELK
For B2, the “IC50 (ng Ab/mL) ± S.E.M.” value (HCC2429 (lung cancer)) was 3230 ± 1116.5 ng Ab/mL, the “IC50 (ng Ab/mL) ± S.E.M.” value (OVCAR3 (ovarian cancer)) was 635 ng Ab/mL and the “IC50 (ng Ab/mL) ± S.E.M.” value (U2OS/hNotch) was 95 ± 18.2 ng Ab/mL. For the same molecule, the “IC50 (ng Ab/mL) ± S.E.M.” value (MDA-MB-468/hNotch) was 4 ± 0.5 ng Ab/mL and the “IC50 (ng Ab/mL) ± S.E.M.” value [1] was 5443 ± 2630.9 ng Ab/mL.

B3: ch28-vc6780 (conjugate)
VH: B2 VH
VL: B2 VL
With B3 the “IC50 (ng Ab/mL) ± S.E.M.” value (HCC2429 (lung cancer)) was 324 ± 78.9 ng Ab/mL, the “IC50 (ng Ab/mL) ± S.E.M.” value (OVCAR3 (ovarian cancer)) was 90 ± 48.5 ng Ab/mL and the “IC50 (ng Ab/mL) ± S.E.M.” value (MDA-MB-468/hNotch) was 3 ± 0.5 ng Ab/mL. The “IC50 (ng Ab/mL) ± S.E.M.” value [1] was 4407 ± 2128.2 ng Ab/mL.
